In patent US20040253222A1:

Target: complement receptor type 3 (CR3), heterodimer of CD11b and CD18 (human) (UniProt P11215)
Experiment: cell-based or functional assay

Substance: H5A4 anti-CD11b monoclonal antibody (Developmental Studies Hybridoma Bank)
- invasion inhibition of endo- and ectocervical cells (gentamicin-resistance assay): > 93%
- invasion inhibition, ectocervical cells (gentamicin-resistance assay): 100%
- invasion inhibition, endocervical cells (gentamicin-resistance assay): 99.9%

Substance: IB4 anti-CD18 antibody
- invasion inhibition of endo- and ectocervical cells (gentamicin-resistance assay): > 93%

Substance: Bear1 anti-CD11b antibody (Immunotech)
- invasion inhibition of endo- and ectocervical cells (gentamicin-resistance assay): > 93%
